Molecular target: mouse IgG1 (subtype 1 IgG antibody) (Mus musculus) (UniProt P01868)
Test: SPR
Conditions: RNA with 5'-dA5 (1-5)

**Q.** “AAAAAGCGCUGAAGAGAAGACGGAAGGAGACGAAGCGC [MIG-m041]” was tested. Which Kd (DNA at 6-9 and 35-38, 2'-OMe U10, BIACORE 3000, 1:1 Langmuir) did it give?
**A.** < 0.001 nM

**Q.** Which Kd (DNA at 6-9 and 35-38, BIACORE 3000, 1:1 Langmuir) does the source give for “AAAAAGCGCUGAAGAGAAGACGGAAGGAGACGAAGCGC [MIG-m037]” here?
**A.** 1.7 nM

**Q.** With “AAAAAGCUGAAGAGAAGACGGAAGGAGACGAAGCT [MIG-m035]” as the sequence, how does the Kd (LNA at G6 C7 G33 C34, 3'-dT35, BIACORE 3000, 1:1 Langmuir) read?
**A.** < 0.001 nM

**Q.** How did the Kd (DNA at G6 C7 G37 C38, BIACORE 3000, 1:1 Langmuir) turn out when “AAAAAGCGCUGAAGAGAAGACGGAAGGAGACGAAGCGC [MIG-m036]” was run?
**A.** 5.48 nM

**Q.** With “AAAAAGCGCUGAAGAGAAGACGGAAGGAGACGAAGCGC [MIG-m040]” as the sequence, how does the Kd (2'-OMe U10, BIACORE 3000, 1:1 Langmuir) read?
**A.** 0.411 nM

**Q.** Which results are given for “AAAAACGCUGAAGAGAAGACGGAAGGAGACGAAGCGT [MIG-m034]”?
**A.** Kd (LNA at C6 G7 C35 G36, 3'-dT37, BIACORE 3000, 1:1 Langmuir): < 0.001 nM; Kd (LNA at C6 G7 C35 G36, 3'-dT37, second measurement (Example 3), differs from Table 2): 0.634 nM

**Q.** Which Kd (LNA at C6 G7 C35 G36, 2'-OMe U9, 3'-dT37, BIACORE 3000, 1:1 Langmuir) does the source give for “AAAAACGCUGAAGAGAAGACGGAAGGAGACGAAGCGT [MIG-m042]” here?
**A.** < 0.001 nM
